Legend:
[1] = system: template bleeding time; set-up: species or system Macaca fascicularis; conditions: cynomolgus monkey, in vivo
Source text: In order to evaluate one aspect of the safety of zsig37 and its effect on template bleeding time, a pre-clinical model in Macaca fascicularis was used. Time to cessation of bleeding from standardized incisions on the animal's forearm, a procedure previously described by Wu, et al., Blood, 2002, 99:3623-3628, was employed to assess the effect of zsig37 on bleeding.
Methods. Five female and twelve male, Macaca fascicularis weighing 2.3 to 4.6 kg were used as test subjects on this project. The animals were immobilized with ketamine hydrochloride (Phoenix Scientific) administered intramuscularly at approximately 10 mg/kg. Each animal was examined, and the animal determined to be acceptable for the study. The right forearm, abdomen, ventral neck and inguinal area were shaved free of hair. The animal was transported to the surgical suite (University of Washington Regional Primate Research Center), positioned inside a heated air circulation system and placed onto isoflurane (Abbott Laboratories) inhalation anesthesia delivered through positive pressure ventilation via an endotracheal tube. […] The time to cessation of bleeding was determined and recorded for each animal. Bleeding times were determined for each animal prior to any treatment, after low molecular weight heparin (Lovenox™, Rhone Polenc, Inc.) treatment and after zsig37 treatment.

[2] = system: TF-1 cells; experiment: Adhesion and spreading of TF-1 cells on zsig37-coated plates; assay type: cell-based; conditions: plates coated in PBS vs 0.1 M NaCO3
Method: The ability of zsig37 to stimulate adhesion and spreading of TF-1 cells was assayed as follows. A series of dilutions were prepared from C-terminal Glu-Glu-tagged zsig37, from 10 to 0.0625 ’g/ml, in either PBS or ELISA coating buffer (0.1 M NaCO3) and each was plated into a 96 well plate (Costar; Pleasanton, Calif.) at 100 μl/well. The plates were incubated at 37° C., 5% CO2 for 2 hours. The plates were then washed 3× with RPMI/10% FBS (RPMI 1640, 2 mM L-glutamine, 110 μg/ml sodium pyruvate, PSN and 10% heat inactivated fetal bovine serum) and allowed to block for 15 minutes.
TF-1 cells (derived from acute myeloid leukemia cells) were resuspended in RPMI/10% FBS and plated into at 10,000 cells/well into the zsig37CEE-coated 96 well plates at a final volume of 120 μl/well. The plate was incubated at 37° C. under 5% CO2 for 2 hours. The plates were then washed 3× with PBS and 200 μl/well growth media (RPMI/10% FBS, 5 ng/ml GM-CSF) was added. The cells were microscopically inspected before and after the wash.
A dye incorporation assay was also used to measure the number of adherent cells based on a colorimetric change and an increase in fluorescent signal. ALAMAR BLUE (AccuMed; Chicago, Ill.) was added to the 96 well plates and the cells were incubated at 37° C. under 5% CO2 overnight. […]

Row | Molecule | template bleeding time vs control (1.0 mg/kg BSA) [1] | adherent cells (ALAMAR BLUE dye incorporation) [2]
1 | ReoPro: comparator in template bleeding time study, 0.25 mg/kg [reference compound] | unable to stop their bleeding | 
2 | zsig37CEE: zsig37 polypeptide having a C-terminal Glu-Glu tag (protein) LVLSRVPHVQGEQQEWEGTEELPSPPDHAERAEEQHEKYRPSQDQGLPASRCLRCCDPGTSMYPATAVPQINITILKGEKGDRGDRGLQGKYGKTGSAGARGHTGPKGQKGSMGAPGERCKSHYAAFSVGRKKPMHSNHYYQTVIFDTEFVNLYDHFNMFTGKFYCYVPGLYFFSLNVHTWNQKETYLHIMKNEEEVVILFAQVGDRSIMQSQSLMLELREQDQVWVRLYKGERENAIFSEELDTYITFSGYLVKHATEPEEYMPME |  | more adherent cells on the C-terminal Glu-Glu tagged (zsig37CEE)-PBS coated plates than on the zsig37CEE-0.1 M NaCO3 coated plates
